Source: PMC8784393 (ACS applied materials & interfaces, 2021)

Legend:
Dynamic light scattering = type: physicochemical; details: DLS intensity average, scattering angle 90°, room temperature, Nanopure water
α-chymotrypsin = α-chymotrypsin (Bos taurus, UniProt P00766); assay: Proteinase assay, α-chymotrypsin degradation by PAGE; type: in vitro ADME; details: bands of intact MEL diminished significantly after 15 min
NCI-H358 cells [1] = assay: Cell viability after 48 h treatment; type: cell-based, human
SKOV-3 cells = assay: Cell viability after 48 h treatment; type: cell-based, human
human red blood cells = assay: Hemolysis assay, hemoglobin released from red blood cells; type: cell-based; details: hemoglobin in supernatant, spectrophotometric
ζ potential measurement = type: physicochemical; details: in Nanopure water
human plasma = assay: Activated partial thromboplastin time; details: 20 μM MEL concentration
[2] = Plasma pharmacokinetics after tail vein injection; type: in vivo; details: C57BL/6 mice, i.v. tail vein, Cy5.5-labeled, two-compartment model, n = 5
NCI-H358 xenografts [3] = assay: Biodistribution by fluorescence imaging in NCI-H358 xenograft mice; type: in vivo; details: i.v. 3 mg/kg MEL, 24 h post-injection, n = 2
NCI-H358 xenografts [4] = assay: Tumor growth inhibition in NCI-H358 xenograft; type: in vivo, athymic nude mice; details: 3 mg/kg MEL-basis i.v. every 3 days, 30 days, n = 4; vehicle 453%
[5] = Innate immune response, cytokine ELISA; type: in vivo; details: C57BL/6 mice, 3 mg/kg MEL, blood 4 h after injection, n = 5
NCI-H358 cells [6] = assay: Cellular uptake kinetics by flow cytometry; type: cell-based, human; details: 1 μM of MEL for 1–4 h
SKOV3 cells = assay: Cellular uptake kinetics by flow cytometry; type: cell-based, human; details: 1 μM of MEL for 1–4 h

Substance | Dh (hydrodynamic diameter, DLS) (Dynamic light scattering) | α-chymotrypsin digestion (in words) (α-chymotrypsin) | cytotoxicity (cell viability, in words) (NCI-H358 cells [1]) | cytotoxicity (cell viability, in words) (SKOV-3 cells) | hemolysis at 1 μM (human red blood cells; 1 μM) | ζ potential (ζ potential measurement) | effect on coagulation (clotting) time, aPTT (human plasma) | hemolysis of RBCs at 60 μM (human red blood cells; 60 μM) | elimination half-life (t1/2β) [2] | tumor vs. liver ratio (relative fluorescent intensities) (NCI-H358 xenografts [3]) | tumor vs. spleen ratio (relative fluorescent intensities) (NCI-H358 xenografts [3]) | tumor growth by day 30 (% of original size) (NCI-H358 xenografts [4]) | interleukin-6 (IL-6) activation [5] | cellular uptake (in words) (NCI-H358 cells [6]) | cellular uptake (in words) (SKOV3 cells)
YPEG-MEL: conjugate of low PEG density: MEL on Y-shaped PEG, Mn 40 kDa, each arm 20 kDa | 21.0 ± 0.5 nm | digested rapidly | reduced but still apparent cytotoxicity | reduced but still apparent cytotoxicity | 16% |  |  |  |  |  |  |  |  |  | 
melittin |  | digested rapidly |  |  |  | ~ 8 mV | doubling the coagulation times | near-complete hemolysis | 43 min | 0.61 | 0.55 | did not lead to statistically meaningful repression of tumor growth | induces activation | fast and accelerating process | fast and accelerating process
pacMELNClv: non-cleavable conjugate of MEL and bottlebrush PEG, negative control |  |  | no evident cytotoxicity | no evident cytotoxicity |  |  |  |  |  |  |  |  |  |  | 
